Test results as given in paper PMC3923860.

System: H1-CΔ97 (histone H1o lacking C-terminal domain) (mouse)
Assay: EMSA
Details: no competitor DNA; EMSA: 50 mM NaCl, 25 mM Tris-HCl pH 7.5, 1 mM EDTA, 1 mM DTT, 100 ug/ml acetylated BSA, 3% glycerol; 30 min on ice; gels 0.5x TBE, 4 C

hemicatenated DNA loops (hcDNA)
Kd: 35 nM
